{"source": "paper PMC5820184", "about": "(Proteins, 2017)", "molecules": {"B1": {"name": "FliD_(78-405), flagellar cap protein from Pseudomonas aeruginosa PAO1 (domain or fragment)", "chain": "NEDILKASATQSAVAGTYQIQVNSLATSSKIALQAIADPANAKFNSGTLNISVGDTKLPAITVDSSNNTLAGMRDAINQAGKEAGVSATIITDNSGSRLVLSSTKTGDGKDIKVEVSDDGSGGNTSLSQLAFDPATAPKLSDGAAAGYVTKAANGEITVDGLKRSIASNSVSDVIDGVSFDVKAVTEAGKPITLTVSRDDAGVKDNVKKFVEAYNTLTKFINEQTVVTKVGEDKNPVTGALLGDASVRALVNTMRSELIASNENGSVRNLAALGITTTKDGTLEIDEKKLDKAISADFEGVASYFTGDTGLAKRLGDKMKPYTDAQGI"}}, "test_in_all_cases": "crystal structure", "key": {"[1]": {"biological_target": "Snake Atadenovirus 1 LH3 protein (snake adenovirus 1)"}, "[2]": {"biological_target": "Sorbitol dehydrogenase (BjSDH) from Bradyrhizobium japonicum (Bradyrhizobium japonicum)"}, "crystal structure": {"biological_target": "the molecule itself"}}}
{"molecule": "Snake Atadenovirus 1 LH3 protein (natural protein)", "values": [{"measurement": "stoichiometry N", "setting": "[1]", "value": 3}]}
{"molecule": "Sorbitol dehydrogenase (BjSDH) from Bradyrhizobium japonicum (enzyme)", "values": [{"measurement": "stoichiometry N", "setting": "[2]", "value": 4}]}
{"molecule": "B1", "values": [{"measurement": "stoichiometry N", "setting": "crystal structure", "value": 6}]}
